{
  "source": "patent US20060234293A1",
  "about": "“Polypeptide methods and means” (priority 2002, published 2006)",
  "molecules": {"B1": {"name": "RAD51 F86E: non-oligomerising mutant RAD51 with Phe86 replaced by glutamic acid (protein, UniProt Q06609 2-339, looked up, variant F86E)", "DNA repair protein RAD51 …": "AMQMQLEANADTSVEEESFGPQPISRLEQCGINANDVKKLEEAGFHTVEAVAYAPKKELINIKGISEAKADKILAEAAKLVPMGETTATEFHQRRSEIIQITTGSKELDKLLQGGIETGSITEMFGEFRTGKTQICHTLAVTCQLPIDRGGGEGKAMYIDTEGTFRPERLLAVAERYGLSGSDVLDNVAYARAFNTDHQTQLLYQASAMMVESRYALLIVDSATALYRTDYSGRGELSARQMHLARFLRMLLRLADEFGVAVVITNQVVAQVDGAAMFAADPKKPIGGNIIAHASTTRLYLRKGRGETRICKIYDSPCLPEAEAMFAINADGVGDAKD"}},
  "target": "T1, Biotinylated BRC Repeat 4 peptide (Bio-BRC4) (Homo sapiens, UniProt P51587)",
  "T1 construct": "host or cells: chemical synthesis for the peptide; E. coli BL21 Codon Plus for RAD51 F86E",
  "T1 sequence (P51587 1517-1551 limits assumed)": "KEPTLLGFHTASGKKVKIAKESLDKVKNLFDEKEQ",
  "T1 sequence (Q06609 whole entry F86E partner)": "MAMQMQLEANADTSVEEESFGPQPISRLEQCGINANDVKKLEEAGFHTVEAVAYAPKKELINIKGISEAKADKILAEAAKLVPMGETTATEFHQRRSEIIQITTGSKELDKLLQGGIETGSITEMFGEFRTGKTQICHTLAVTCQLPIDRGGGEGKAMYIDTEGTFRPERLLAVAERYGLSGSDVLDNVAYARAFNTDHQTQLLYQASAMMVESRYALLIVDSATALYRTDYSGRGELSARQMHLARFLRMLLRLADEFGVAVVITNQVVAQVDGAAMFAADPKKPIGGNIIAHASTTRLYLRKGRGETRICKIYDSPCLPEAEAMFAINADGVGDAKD",
  "test": "SPR binding assay of RAD51 F86E on BRC4 coupled-chip",
  "details": "5 μM in HBSEP, 60 seconds contact time; FIG. 9(a)",
  "method": "Measurements were performed on the BIACORE X biosensor (BIACORE AB, Uppsala, Sweden). A continuous flow of de-gassed and 0.22 μm filtered HBSEP running buffer was employed at a constant temperature of 25° C.\nFlow cells 1 and 2 of a pre-coated streptavidin Sensor chip SA were conditioned with three sequential 20 μl injections of 1 M NaCl, 50 mM NaOH at a flow rate of 20 μl/min.\nBiotinylated BRC Repeat 4 peptide (Bio-BRC4) was immobilized to a level of 200 RU by affinity capture onto Flow cell 2 only. This was achieved by two 20 μl injections of 10 nM Bio-BRC4 in HBS-EP at a flow rate of 20 μl/min. Flow cell 1 represented a reference surface to correct for any refractive index variations and thus was not derivated. Flow cells 1 and 2 were both subsequently treated with three successive injections of 40 μl regeneration solution (10 mM Glycine pH 2.5) at a flow rate of 40 μl/min to ensure baseline stabilization.\nThe […] mutant RAD51 Phe86Glu (F86E) or Ala89Glu (A89E) protein in solution can then be run over the BRC repeat coupled-chip in a Biacore instrument (Biacore AB, Uppsala, Sweden) or other suitable measuring device for surface-plasmon resonance. Reference corrected data was analysed using BIAevalution software (3.2V) and sensorgrams plotted. […]",
  "data": [
    {"molecule": "B1", "values": [
      {"measurement": "binding to the BRC4 coupled-chip", "result": "binding can easily be detected"}
    ]}
  ]
}
